Molecular target: PICK1 PDZ domain with an additional C-terminal fusion (NKLQQSAV), oxidized, bCPA-treated dimer (UniProt Q9NRD5)
Assay: crystal structure; dimeric bCPA-treated PICK1 PDZ with compound 1o; space group P3_(2), one disulfide bridged dimer per asymmetric unit; 1.69 Å

stoichiometry N: 2
Substance: PICK1 PDZ domain with an additional C-terminal fusion (NKLQQSAV), oxidized, bCPA-treated dimer (from UniProt Q9NRD5 1-105) (domain or fragment)

Reference: article PMC6128908, “Potent PDZ-Domain PICK1 Inhibitors that Modulate Amyloid Beta-Mediated Synaptic Dysfunction” (Scientific Reports, 2018)
